Molecular target: T1, HpRap1B (Hansenula polymorpha DL-1, UniProt W1QDN2 1-576)
T1 sequence: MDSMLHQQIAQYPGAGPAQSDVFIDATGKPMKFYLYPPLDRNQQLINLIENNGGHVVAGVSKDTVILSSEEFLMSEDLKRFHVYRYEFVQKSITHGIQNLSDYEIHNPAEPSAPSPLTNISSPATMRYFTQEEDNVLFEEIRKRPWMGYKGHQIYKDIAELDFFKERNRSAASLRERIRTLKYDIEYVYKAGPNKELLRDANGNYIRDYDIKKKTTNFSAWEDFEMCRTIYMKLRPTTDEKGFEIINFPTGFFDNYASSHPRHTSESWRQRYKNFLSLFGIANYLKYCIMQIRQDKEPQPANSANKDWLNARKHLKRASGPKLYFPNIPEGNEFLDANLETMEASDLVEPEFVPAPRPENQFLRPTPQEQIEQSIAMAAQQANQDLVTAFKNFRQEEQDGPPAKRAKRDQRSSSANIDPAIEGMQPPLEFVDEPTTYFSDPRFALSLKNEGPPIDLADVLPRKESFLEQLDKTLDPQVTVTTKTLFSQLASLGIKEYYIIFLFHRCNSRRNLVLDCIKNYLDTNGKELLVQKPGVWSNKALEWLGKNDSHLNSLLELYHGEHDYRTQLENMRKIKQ
Test: SPR; kinetic fit; equilibrium Kd 13±3; SPR: 10 mM HEPES-NaOH pH 7.5, 150 mM NaCl, 0.5 mM DTT, 0.05% Tween 20, 1 mg/ml BSA, 0.02 mg/ml salmon sperm DNA; competition 2 nM protein with 20 or 200 nM competitor. EMSA: 20 mM HEPES-NaOH pH 7.5, 50 mM NaCl, 0.2 mg/ml BSA, 5% glycerol, 0.1 mg/ml salmon sperm DNA, room temperature
Settings: protein: recombinant; 3' overhang 20 nt on strand 2

B1: HANPO4 (SPR) (dsDNA)
DNA 1: GGGTGGCGGGGTGGCGGGGTGGCGGGGTGGCG
DNA 2: CGCCACCCCGCCACCCCGCCACCCCGCCACCCCCTCTACGTCCTCCTGCTCC
In the case of B1, the Kd is reported as 12 ± 3 nM.

Source: article PMC6510891, “Functional duplication of Rap1 in methylotrophic yeasts”
